The values that follow come from patent US20260071182A1 (GAIA BIOMEDICINE, published 2026).

Experiment in all cases: BLI (Octet RED96), target on sensor, monobody in five 2-fold dilutions
Experiment [1] deals with T1, Human NKp30/NCR3/CD337 Protein, Fc Tag (NC3-H5259) (human, UniProt O14931 19-135).
T1 construct: Bought from ACROBiosystems, catalog NC3-H5259; not shown: Fc tag of the purchased protein
T1 sequence (looked up): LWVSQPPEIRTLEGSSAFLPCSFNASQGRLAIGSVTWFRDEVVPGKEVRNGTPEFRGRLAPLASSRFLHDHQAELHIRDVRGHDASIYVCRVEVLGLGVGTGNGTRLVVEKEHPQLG
On the procedure:
(§1) The binding abilities and specificities were examined by using an Octet® RED96 (ForteBio) with bio-layer interferometry. Measurement was performed with the following program: Dip for 50 seconds, Load for x seconds (until a signal of 1.0 nm (NKp46, 2B4) or 0.8 nm (Nkp30) was reached), Baseline for 60 seconds, Association for 600 seconds, and Dissociation for 600 seconds. At that time, the monobody concentrations were equally set to 40 nM. The acquired data were analyzed with ForteBio Data Analysis 10.0. Only samples for which binding ability and specificity were found were subjected to measurement of dissociation constants under different conditions. The measurement conditions are shown in a table given below. Dip, Baseline, Association, and Dissociation were performed for the same times as in examining binding ability and specificity. The monobodies were serially diluted from the highest concentration by a factor of 2 to prepare five concentrations for use in measurement.
(§2) The binding abilities and specificities of all the clones expressed and purified in Example 3 were examined, and the values of dissociation constants were measured. FIGS. 5 to 7 show the measurement results. In the top graphs in each of FIGS. 5 to 7, upper lines show results of measurement of the binding abilities of the monobodies with binding of a target to the tip of the sensor, and lower lines show results of examination on whether a monobody was bound only to the sensor without binding of a target to the sensor. Mb in the graphs is an abbreviation for monobody concentration. For any of the clones, the monobody was bound to the sensor when a target was fixed on the sensor, and no binding was found when a target was not fixed on the sensor. The bottom graphs in each of FIGS. 5 to 7 show results of measurement of dissociation constants for five concentrations.

The target in experiment [2] is T2, Biotinylated Human NKp46/NCR/CD335 Protein, Fc, Avitag (NC1-H82F9) (human, UniProt O76036 22-255, biotinylated (Avitag)).
T2 construct: Bought from ACROBiosystems, catalog NC1-H82F9; not shown: Fc and Avitag of the purchased protein
T2 sequence (O76036 22-255): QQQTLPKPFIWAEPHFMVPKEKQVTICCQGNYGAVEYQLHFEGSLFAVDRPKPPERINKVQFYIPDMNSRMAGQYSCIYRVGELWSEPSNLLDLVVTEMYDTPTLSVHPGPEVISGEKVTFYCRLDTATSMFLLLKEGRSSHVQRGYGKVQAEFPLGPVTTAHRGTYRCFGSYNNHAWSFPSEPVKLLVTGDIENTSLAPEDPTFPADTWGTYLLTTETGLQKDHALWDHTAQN
As for the experimental part: as §1, §2

Experiment [3] addresses T3, Biotinylated Human 2B4/CD244/SLAMF4 Protein, Fc, Avitag (2B4-H82F0) (human, UniProt Q9BZW8-2 22-221, biotinylated (Avitag)).
T3 construct: Bought from ACROBiosystems, catalog 2B4-H82F0; not shown: Fc and Avitag of the purchased protein
T3 sequence (looked up): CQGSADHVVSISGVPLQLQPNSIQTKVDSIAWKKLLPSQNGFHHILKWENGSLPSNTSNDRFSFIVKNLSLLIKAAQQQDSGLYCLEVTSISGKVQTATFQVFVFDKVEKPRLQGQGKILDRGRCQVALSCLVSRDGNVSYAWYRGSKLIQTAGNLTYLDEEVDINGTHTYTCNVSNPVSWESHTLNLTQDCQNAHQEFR
As for the experimental part:
as §1, §2

In experiment [4] the target is T4, Biotinylated Human 2B4/CD244/SLAMF4 Protein, Fc, Avitag (2B4-H82F0) (human) (UniProt Q9BZW8).
T4 sequence (biotinylated (Avitag), looked up): T3 sequence (looked up)

B1: Mb-NKp30-BC-6 (designed binder)
chain: LEVVEASPTSIQISWDATDRNYDITYGMQVRYYRITYGETGGNSPVQEFTVPGSKSTATISGLKPGVDYTITVYAVTYWWDGYSYSEEAWYYPISINYRTEIDKPSQ
notes: Monobody on human fibronectin type III domain scaffold, BC-FG library; also called NKp30 BC-FG No. 6; not shown: N-terminal residues of the expression construct (X7n7; the library has MPNR), linker, Sortase A recognition site and His tag
On to B1, for which, in experiment [1], the Kd was 270 pM, the koff worked out at 0.00024 s⁻¹ and the kon is 900000 M⁻¹ s⁻¹.

B2: Mb-NKp46-CD-1 (designed binder)
chain: LEVVEASPTSIQISWDAPAVTVRYYDIYYGETGPGYYMWQRGVINVQAFTVPGSKSTATISGLKPGVDYTITVYAVTGQERAYGHPEHFPISINYRTEIDKPSQ
notes: Monobody on human fibronectin type III domain scaffold, CD-FG library; also called NKp46 CD-FG No. 1; not shown: N-terminal residues of the expression construct (X7n7; the library has MPNR), linker, Sortase A recognition site and His tag
Turning to B2, in experiment [2], the affinity, expressed as Kd, was 140 pM; the koff was determined as 7.2e-05 s⁻¹; the kon turned out to be 530000 M⁻¹ s⁻¹.

B3: Mb-2B4-CD-3 (designed binder)
chain: LEVVEASPTSIQISWDAPAVTVRYYEILYGETGTPPWIHKGWVQYFTVPGSKSTATISGLKPGVDYTITVYAVTVTPYGRKWVGMNGWPISINYRTEIDKPSQ
notes: Monobody on human fibronectin type III domain scaffold, CD-FG library; also called 2B4 CD-FG No. 3; not shown: Sortase A recognition site, His tag and any linker (X8n8) at the C terminus; MPNR in the library
In experiment [3], B3 yielded a Kd of 1500 pM, a koff of 0.00035 s⁻¹ and a kon of 230000 M⁻¹ s⁻¹.

B4: Mb-NKp46-BC-2 (designed binder)
chain: LEVVEASPTSIQISWDAWTWLGYEYYWVRYYRITYGETGGNSPVQEFTVPGSKSTATISGLKPGVDYTITVYAVTWDSKPGAIGIPISINYRTEIDKPSQ
notes: Monobody on human fibronectin type III domain scaffold, BC-FG library; also called NKp46 BC-FG No. 2; not shown: N-terminal residues of the expression construct (X7n7; the library has MPNR), linker, Sortase A recognition site and His tag
Regarding B4, in experiment [2], the Kd was 1200 pM, the koff is 0.00047 s⁻¹ and the kon stood at 380000 M⁻¹ s⁻¹.

B5: Mb-NKp46-BC-3 (designed binder)
chain: LEVVEASPTSIQISWDATYWDWGFRVRYYRITYGETGGNSPVQEFTVPGSKSTATISGLKPGVDYTITVYAVTWSWARRTHISWFPISINYRTEIDKPSQ
notes: Monobody on human fibronectin type III domain scaffold, BC-FG library; also called NKp46 BC-FG No. 3; not shown: N-terminal residues of the expression construct (X7n7; the library has MPNR), linker, Sortase A recognition site and His tag
For B5, in experiment [2], the Kd was less than 10 pM, the koff is less than 1e-06 s⁻¹ and the kon was found to be 100000 M⁻¹ s⁻¹.

B6: Mb-2B4-CD-1 (designed binder)
chain: LEVVEASPTSIQISWDAPAVTVRYYGIYYGETGTSPWVYNGYVQEFTVPGSKSTATISGLKPGVDYTITVYAVTDQYKSWNLEEFHPISINYRTEIDKPSQ
notes: Monobody on human fibronectin type III domain scaffold, CD-FG library; also called 2B4 CD-FG No. 1; not shown: Sortase A recognition site, His tag and any linker (X8n8) at the C terminus; MPNR in the library
In experiment [3], B6 had a Kd of 2800 pM, a koff of 0.0002 s⁻¹ and a kon of 71000 M⁻¹ s⁻¹.

B7: Mb-2B4-BC-2 (designed binder, part only; not given: N-terminal start, linker, sortase site, tag, not shown: small tags and cut ends)
chain, part: LEVVEASPTSIQISWDAQAYWFEYTWWVRYYRITYGETGGNSPVQEFTVPGSKSTATISGLKPGVDYTITVYAVTLEWVYDDQWTSGPISINYRTEIDKPSQ
In experiment [4], B7 had a Kd of 1000 pM, a koff of 9.3e-05 s⁻¹ and a kon of 92000 M⁻¹ s⁻¹.

B8: Mb-NKp30-CD-9 (designed binder)
chain: LEVVEASPTSIQISWDAPAVTVRYYVITYGETGWSWESYWHGTYVQQFTVPGSKSTATISGLKPGVDYTITVYAVTTFMKDIPSYYPISINYRTEIDKPSQ
notes: Monobody on human fibronectin type III domain scaffold, CD-FG library; also called NKp30 CD-FG No. 9; not shown: N-terminal residues of the expression construct (X7n7; the library has MPNR), linker, Sortase A recognition site and His tag
As to B8, in experiment [1], binding was characterised by a dissociation constant (Kd) of 350 pM, the koff is 0.00029 s⁻¹ and the kon was determined as 810000 M⁻¹ s⁻¹.

B9: Mb-NKp30-BC-2 (designed binder)
chain: LEVVEASPTSIQISWDALWHYYGDQYWVRYYRITYGETGGNSPVQEFTVPGSKSTATISGLKPGVDYTITVYAVTWMYVPEYYFNPWPISINYRTEIDKPSQ
notes: Monobody on human fibronectin type III domain scaffold, BC-FG library; also called NKp30 BC-FG No. 2; not shown: N-terminal residues of the expression construct (X7n7; the library has MPNR), linker, Sortase A recognition site and His tag
As to B9, in experiment [1], the Kd was found to be 38 pM, the koff was found to be 2.7e-05 s⁻¹ and the kon stood at 720000 M⁻¹ s⁻¹.

B10: Mb-NKp46-CD-3 (designed binder)
chain: LEVVEASPTSIQISWDAPAVTVRYYVISYGETGRYKYHRRINVQGFTVPGSKSTATISGLKPGVDYTITVYAVTGTQWYVFNEAGDVAGYPISINYRTEIDKPSQ
notes: Monobody on human fibronectin type III domain scaffold, CD-FG library; also called NKp46 CD-FG No. 3; not shown: N-terminal residues of the expression construct (X7n7; the library has MPNR), linker, Sortase A recognition site and His tag
In experiment [2], B10 registered a Kd of 980 pM, a koff of 7e-05 s⁻¹ and a kon of 72000 M⁻¹ s⁻¹.
